The record followed here is the supplement of paper PMC9112550, “Optimization of the antimicrobial peptide Bac7 by deep mutational scanning” (BMC Biology, 2022).

The data set deals with Escherichia coli TOP10. Nature of the data set: shrunken log2 fold change of peptide-encoding DNA abundance (4.5 h post-induction vs induction); higher = less antimicrobial activity (less host growth inhibition). The note with it: time post-induction: 4.5 h; library: site-saturation at positions 5, 18, 19, 20.
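Note: peptides expressed intracellularly from a pBAD plasmid library in pooled LB shake-flask culture, induced with 0.3% L-arabinose, DNA abundance read by NGS, three biological replicates, DESeq2 with apeglm shrinkage.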

Take RRIRIRPPRLPRPRPRPFSLPRP: the “shrunken log2 fold change” value was -1.26.

Consider RRIRGRPPRLPRPRPRPEYYPRP, for which the “shrunken log2 fold change” value turned out to be 0.166.

As for RRIRSRPPRLPRPRPRPRHCPRP, the “shrunken log2 fold change” value was determined as 0.101.

For the sequence RRIRTRPPRLPRPRPRPRSIPRP, the “shrunken log2 fold change” value is -0.122.

In the case of RRIRSRPPRLPRPRPRPARLPRP, the “shrunken log2 fold change” value amounted to 0.0986.

Turning to RRIRIRPPRLPRPRPRPFPTPRP, the “shrunken log2 fold change” value came out at 0.0232.

For RRIRQRPPRLPRPRPRPVCAPRP, the “shrunken log2 fold change” value worked out at 0.118.

Take RRIRNRPPRLPRPRPRPDANPRP: the “shrunken log2 fold change” value is -0.318.

As for RRIRDRPPRLPRPRPRPYCQPRP, the “shrunken log2 fold change” value is -0.226.

For the sequence RRIRWRPPRLPRPRPRPKCQPRP, the “shrunken log2 fold change” value worked out at 0.136.

As for RRIRCRPPRLPRPRPRPPWVPRP, the “shrunken log2 fold change” value was determined as 0.204.

As to RRIRKRPPRLPRPRPRPPPTPRP, the “shrunken log2 fold change” value amounted to 1.11.

RRIRARPPRLPRPRPRPAQTPRP: the “shrunken log2 fold change” value was found to be 0.057.

RRIRRRPPRLPRPRPRPMKNPRP: the “shrunken log2 fold change” value was found to be 0.298.

As for RRIRGRPPRLPRPRPRPPECPRP, the “shrunken log2 fold change” value is 0.483.

In the case of RRIRKRPPRLPRPRPRPQMWPRP, the “shrunken log2 fold change” value worked out at 0.608.

As for RRIRARPPRLPRPRPRPFEYPRP, the “shrunken log2 fold change” value is -0.0276.

On to RRIRGRPPRLPRPRPRPNKGPRP, for which the “shrunken log2 fold change” value was -0.0466.

With RRIRERPPRLPRPRPRPYVPPRP, the “shrunken log2 fold change” value was -0.0961.

With RRIRHRPPRLPRPRPRPRPKPRP, the “shrunken log2 fold change” value is -0.0808.

Turning to RRIRKRPPRLPRPRPRPCGNPRP, the “shrunken log2 fold change” value was determined as 0.0169.

Regarding RRIRFRPPRLPRPRPRPPMMPRP, the “shrunken log2 fold change” value was -0.0466.

As for RRIRCRPPRLPRPRPRPILVPRP, the “shrunken log2 fold change” value was -0.0457.

Regarding RRIRSRPPRLPRPRPRPRLAPRP, the “shrunken log2 fold change” value came out at 0.45.

In the case of RRIRRRPPRLPRPRPRPNMNPRP, the “shrunken log2 fold change” value is -0.463.

With RRIRKRPPRLPRPRPRPPNLPRP, the “shrunken log2 fold change” value was 0.492.

In the case of RRIRFRPPRLPRPRPRPAAWPRP, the “shrunken log2 fold change” value came to 0.28.

Turning to RRIRTRPPRLPRPRPRPYKTPRP, the “shrunken log2 fold change” value was -0.315.

In the case of RRIRYRPPRLPRPRPRPDITPRP, the “shrunken log2 fold change” value was -0.385.

In the case of RRIRGRPPRLPRPRPRPHYQPRP, the “shrunken log2 fold change” value was -0.15.

Consider RRIRQRPPRLPRPRPRPVAQPRP, for which the “shrunken log2 fold change” value was found to be 0.24.

Take RRIRPRPPRLPRPRPRPSDMPRP: the “shrunken log2 fold change” value is -0.273.

RRIRMRPPRLPRPRPRPRPCPRP: the “shrunken log2 fold change” value was 0.586.

In the case of RRIRVRPPRLPRPRPRPRWCPRP, the “shrunken log2 fold change” value turned out to be 0.295.

As for RRIRWRPPRLPRPRPRPRKEPRP, the “shrunken log2 fold change” value was found to be 0.0466.

As to RRIRYRPPRLPRPRPRPHECPRP, the “shrunken log2 fold change” value was 0.0244.

In the case of RRIRWRPPRLPRPRPRPQMQPRP, the “shrunken log2 fold change” value was 0.0894.

Regarding RRIRTRPPRLPRPRPRPYMAPRP, the “shrunken log2 fold change” value is -1.06.

RRIRARPPRLPRPRPRPFSDPRP: the “shrunken log2 fold change” value was -0.169.

Regarding RRIRNRPPRLPRPRPRPAFVPRP, the “shrunken log2 fold change” value worked out at 0.154.

For RRIRDRPPRLPRPRPRPYQAPRP, the “shrunken log2 fold change” value was -0.0283.

Take RRIRERPPRLPRPRPRPRKPPRP: the “shrunken log2 fold change” value is -0.13.

RRIRARPPRLPRPRPRPYSKPRP: the “shrunken log2 fold change” value was -0.91.

Regarding RRIRPRPPRLPRPRPRPINHPRP, the “shrunken log2 fold change” value is -0.619.

Take RRIRVRPPRLPRPRPRPHTFPRP: the “shrunken log2 fold change” value was -0.105.

RRIRNRPPRLPRPRPRPWIYPRP: the “shrunken log2 fold change” value was -0.187.

Take RRIRIRPPRLPRPRPRPYSHPRP: the “shrunken log2 fold change” value is -0.941.

As to RRIRHRPPRLPRPRPRPYPWPRP, the “shrunken log2 fold change” value is -0.113.

Consider RRIRWRPPRLPRPRPRPIEYPRP, for which the “shrunken log2 fold change” value was -0.224.

Turning to RRIRARPPRLPRPRPRPEIMPRP, the “shrunken log2 fold change” value turned out to be 0.43.

As for RRIRTRPPRLPRPRPRPNHCPRP, the “shrunken log2 fold change” value was -0.479.

Take RRIRQRPPRLPRPRPRPKIKPRP: the “shrunken log2 fold change” value is -0.273.

As for RRIRQRPPRLPRPRPRPWHRPRP, the “shrunken log2 fold change” value is -0.0346.

Consider RRIRMRPPRLPRPRPRPSGAPRP, for which the “shrunken log2 fold change” value is 1.13.

As for RRIRARPPRLPRPRPRPIDLPRP, the “shrunken log2 fold change” value was 0.289.

As to RRIRLRPPRLPRPRPRPLHYPRP, the “shrunken log2 fold change” value is -0.00799.

With RRIRPRPPRLPRPRPRPVKVPRP, the “shrunken log2 fold change” value was found to be 0.161.

Turning to RRIRSRPPRLPRPRPRPMVRPRP, the “shrunken log2 fold change” value worked out at 0.00927.

Turning to RRIRERPPRLPRPRPRPSYEPRP, the “shrunken log2 fold change” value was -0.499.

In the case of RRIRGRPPRLPRPRPRPDGNPRP, the “shrunken log2 fold change” value was 0.276.

RRIRNRPPRLPRPRPRPCRYPRP: the “shrunken log2 fold change” value is -0.148.

As for RRIRARPPRLPRPRPRPPFAPRP, the “shrunken log2 fold change” value worked out at 0.87.

With RRIRKRPPRLPRPRPRPAIGPRP, the “shrunken log2 fold change” value was found to be 1.04.

As to RRIRVRPPRLPRPRPRPMTPPRP, the “shrunken log2 fold change” value turned out to be 0.452.

Regarding RRIRLRPPRLPRPRPRPRDGPRP, the “shrunken log2 fold change” value came out at 1.06.

Consider RRIRLRPPRLPRPRPRPVKLPRP, for which the “shrunken log2 fold change” value is -0.473.

As for RRIRTRPPRLPRPRPRPDRSPRP, the “shrunken log2 fold change” value was -0.287.

In the case of RRIRRRPPRLPRPRPRPQGYPRP, the “shrunken log2 fold change” value is -0.0842.

In the case of RRIRWRPPRLPRPRPRPDRDPRP, the “shrunken log2 fold change” value was 0.0716.

On to RRIRWRPPRLPRPRPRPYIDPRP, for which the “shrunken log2 fold change” value was -0.23.

Turning to RRIRTRPPRLPRPRPRPRQQPRP, the “shrunken log2 fold change” value amounted to 0.349.

In the case of RRIRCRPPRLPRPRPRPQIMPRP, the “shrunken log2 fold change” value is -0.352.

With RRIRGRPPRLPRPRPRPILFPRP, the “shrunken log2 fold change” value was 0.257.

With RRIRVRPPRLPRPRPRPSHTPRP, the “shrunken log2 fold change” value was -0.0229.

Turning to RRIRMRPPRLPRPRPRPEYMPRP, the “shrunken log2 fold change” value was -0.00213.

For RRIRDRPPRLPRPRPRPAGCPRP, the “shrunken log2 fold change” value is 0.738.

As for RRIRSRPPRLPRPRPRPTMAPRP, the “shrunken log2 fold change” value was 0.173.

Consider RRIRWRPPRLPRPRPRPWLVPRP, for which the “shrunken log2 fold change” value is -0.237.

As for RRIRRRPPRLPRPRPRPCMDPRP, the “shrunken log2 fold change” value is -0.229.

Regarding RRIRVRPPRLPRPRPRPIMEPRP, the “shrunken log2 fold change” value is 0.0384.

For the sequence RRIRQRPPRLPRPRPRPTKTPRP, the “shrunken log2 fold change” value was 0.298.

In the case of RRIRIRPPRLPRPRPRPTATPRP, the “shrunken log2 fold change” value came out at 0.0371.

As to RRIRIRPPRLPRPRPRPQAPPRP, the “shrunken log2 fold change” value is -0.331.

As to RRIRCRPPRLPRPRPRPLMMPRP, the “shrunken log2 fold change” value came out at 0.239.

Turning to RRIRWRPPRLPRPRPRPGERPRP, the “shrunken log2 fold change” value turned out to be 0.303.

RRIRLRPPRLPRPRPRPNVIPRP: the “shrunken log2 fold change” value is -0.106.

In the case of RRIRERPPRLPRPRPRPEQHPRP, the “shrunken log2 fold change” value was -0.0123.

With RRIRARPPRLPRPRPRPAAEPRP, the “shrunken log2 fold change” value was 1.6.

For the sequence RRIRWRPPRLPRPRPRPLHPPRP, the “shrunken log2 fold change” value stood at 0.597.

RRIRKRPPRLPRPRPRPVRIPRP: the “shrunken log2 fold change” value worked out at 0.494.

RRIRARPPRLPRPRPRPDYWPRP: the “shrunken log2 fold change” value was found to be 0.139.

For the sequence RRIRWRPPRLPRPRPRPSCRPRP, the “shrunken log2 fold change” value stood at 0.0511.

In the case of RRIRVRPPRLPRPRPRPLEDPRP, the “shrunken log2 fold change” value was determined as 0.144.

With RRIRYRPPRLPRPRPRPGFRPRP, the “shrunken log2 fold change” value is -0.322.

Take RRIRMRPPRLPRPRPRPKRWPRP: the “shrunken log2 fold change” value was determined as 1.51.

For the sequence RRIRWRPPRLPRPRPRPSCHPRP, the “shrunken log2 fold change” value was -0.066.

Turning to RRIRDRPPRLPRPRPRPTHYPRP, the “shrunken log2 fold change” value was -0.103.

For the sequence RRIRLRPPRLPRPRPRPNNYPRP, the “shrunken log2 fold change” value was -0.577.

In the case of RRIRTRPPRLPRPRPRPVMAPRP, the “shrunken log2 fold change” value is -0.0918.

Turning to RRIRRRPPRLPRPRPRPAQDPRP, the “shrunken log2 fold change” value turned out to be 0.349.

On to RRIRIRPPRLPRPRPRPLLTPRP, for which the “shrunken log2 fold change” value is -0.156.

Turning to RRIRFRPPRLPRPRPRPCEFPRP, the “shrunken log2 fold change” value was 0.0635.

In the case of RRIRTRPPRLPRPRPRPGWVPRP, the “shrunken log2 fold change” value was -0.0236.

Take RRIRFRPPRLPRPRPRPWRSPRP: the “shrunken log2 fold change” value was -0.0939.

As for RRIRQRPPRLPRPRPRPIATPRP, the “shrunken log2 fold change” value was -0.0607.

As to RRIRLRPPRLPRPRPRPPHVPRP, the “shrunken log2 fold change” value was 0.989.

As to RRIRERPPRLPRPRPRPYDRPRP, the “shrunken log2 fold change” value is 0.0251.

Regarding RRIRQRPPRLPRPRPRPGSNPRP, the “shrunken log2 fold change” value was determined as 0.127.

For RRIRSRPPRLPRPRPRPEYAPRP, the “shrunken log2 fold change” value stood at 0.496.

As to RRIRGRPPRLPRPRPRPNVYPRP, the “shrunken log2 fold change” value was 0.205.

Turning to RRIRRRPPRLPRPRPRPFEPPRP, the “shrunken log2 fold change” value came to 0.152.

Turning to RRIRTRPPRLPRPRPRPQCGPRP, the “shrunken log2 fold change” value is -0.0173.

For the sequence RRIRLRPPRLPRPRPRPENNPRP, the “shrunken log2 fold change” value was -0.406.

As to RRIRKRPPRLPRPRPRPMWFPRP, the “shrunken log2 fold change” value turned out to be 0.0615.

Turning to RRIRQRPPRLPRPRPRPRWEPRP, the “shrunken log2 fold change” value stood at 0.0653.

With RRIRLRPPRLPRPRPRPCSYPRP, the “shrunken log2 fold change” value is -0.259.

As to RRIRLRPPRLPRPRPRPFGDPRP, the “shrunken log2 fold change” value is -0.186.

RRIRKRPPRLPRPRPRPKPNPRP: the “shrunken log2 fold change” value is 0.516.

With RRIRCRPPRLPRPRPRPMYGPRP, the “shrunken log2 fold change” value is -0.675.

Turning to RRIRWRPPRLPRPRPRPHALPRP, the “shrunken log2 fold change” value is -0.118.

For RRIRFRPPRLPRPRPRPVEQPRP, the “shrunken log2 fold change” value was -0.0448.

RRIRQRPPRLPRPRPRPPLFPRP: the “shrunken log2 fold change” value came out at 0.838.

RRIRTRPPRLPRPRPRPMLFPRP: the “shrunken log2 fold change” value came out at 0.177.

RRIRVRPPRLPRPRPRPAQLPRP: the “shrunken log2 fold change” value was found to be 0.0744.

As to RRIRTRPPRLPRPRPRPYMLPRP, the “shrunken log2 fold change” value is -1.13.
